Measurements published in the supplement of paper PMC12042874.
± gives the uncertainty stated by the source.

Experiment: amyloid nucleation score (Sup35N fusion, yeast selection) (log enrichment); library NNK2; higher = more nucleation; inactive = no reads after selection
Summary of the method: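 Yeast lacking psi expressed peptides of 20 random codons fused to Sup35N, received 100 μM copper sulfate for 24 hours, and were then grown for 7 days at 30°C on medium lacking adenine and uracil. Illumina sequencing of input and output plasmid inserts provided the reads. Nucleation scores are DiMSum log enrichments of output over input, centred on the mode of non-aggregating sequences. Any sequence with under 100 input reads was excluded.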

Substance | amyloid nucleation score
AVLCWLCLLGGLNINFEECG | 4.11 ± 0.045
AVRLSEV | 0.421 ± 0.38
AVTIMCPAGLTMANSLVFKQ | 5.18 ± 0.07
AVVLLLRTAGVVIGHLVLRH | -0.016 ± 0.29
AVWVRLTFDYWGRCTILGTV | inactive
AVYFYRALDVVMCAFVRKGE | 6.01 ± 0.068
AVYSGHSYVKMSWVSGGRYW | 0.747 ± 0.43
AWENYYSGLVNLLAASACIV | -0.163 ± 0.79
AWFVYYVYRMFLNVSTSYWK | 0.074 ± 0.74
AYGQKNVSSRSLTFV | 3.41 ± 0.15
AYSVRLDLSCDQRCSF | 4.366 ± 0.041
AYYYTVLYYSFNMFRFVYTW | inactive
CADAITRHAGTFVAGWSW | 0.865 ± 0.17
CAGGFGLKPAFVYEFWCKSI | -1.17 ± 1
CAGYMRRHFSAAVTWTWAEG | 1.22 ± 0.69
CAMVKFY | -1.3 ± 0.62
CANIMMKSKVYKFNERRSVK | -0.873 ± 0.62
CANYSDARITFTYNSYKICV | 1.09 ± 0.2
CARIWLRTWGKIRA | 0.092 ± 1.1
CAVRF | 0.498 ± 0.64
CAVRWVGVS | 1.12 ± 0.23
CAVVKAILSCMFTLSSSCLH | 0.441 ± 0.49

Substance | amyloid nucleation score
CCELAPWFFTI | 0.068 ± 0.32
CCPEHRNRAGNNDFWSARTQ | 0.392 ± 0.57
CCSISTDLCDKYFVTFCLLS | inactive
CCWVDLGLKRMYESLFDR | 4.14 ± 0.051
CDKDMRILHMYGLEASEGVY | 0.526 ± 0.26
CDSARFEGNVEAAR | -0.134 ± 0.34
CEALQSW | 0.699 ± 0.34
CEIHYIIRQRSPVLSNRVQR | inactive
CERLDCSQKDSGCYWRRHGI | 0.471 ± 0.62
CESWMGAKTITLELTGGDSE | 0.664 ± 0.38
CETLSGMRGLCRKKTDVPDI | -0.036 ± 0.63
CFCKKCWVDSLLRRRVNNFH | -0.737 ± 1.1
CFCLWGLDDLVLGLGSTMRF | 3.16 ± 0.057
CFKMIFDQGSPKMRMHHIGV | 0.234 ± 0.54
CFLDGYWPGGELMKIGDYAL | 0.248 ± 0.28
CFLESGSLMLYEV | -0.081 ± 1.1
CFNGLDLLILSTKMVSLLWY | -0.492 ± 1.1
CFQSRYLTRSGLKVWHTKGD | 0.631 ± 0.37
CFTPFMLFCKDEV | -1.12 ± 0.55
CFTSWMRPRKSYLTDNRCIN | -0.55 ± 0.79
CFYSNWKQGYDICHVSGDRF | -0.956 ± 0.78
CGDQSVFERYETRRNLGL | 0.21 ± 0.63

Substance | amyloid nucleation score
CGKLSLLNQVWIVSQPMPGQ | 7.57 ± 0.064
CGKYSS | 7.602 ± 0.041
CGLCMEGYSHEMIDRLSSIS | 0.227 ± 0.56
CGLVAVNDYLGVRVGLFHIC | -1.01 ± 1.1
CGMCKF | -0.487 ± 0.29
CGSSMEYVGPLVYSAGAAEV | -0.097 ± 1.1
CGTLINADRPAWH | -0.593 ± 0.35
CGVIKHPLSGYYKRASMLCN | -1.52 ± 1.1
CGVMKNYDESKTYGLGLG | 3.51 ± 0.1
CHACLWRETRVRTCVSAEHH | 1.65 ± 0.35
CHKVWSKEDWATVWSVGGLV | -0.02 ± 1.1
CHRLDWINYLCGSHKAIMIV | -0.472 ± 0.5
CHRNFITCLYAMYSELVLVL | 0.648 ± 0.54
CHSLGVRF | 3.17 ± 0.093
CINRVRG | -0.398 ± 0.76
CIPRRGY | 0.713 ± 0.74
CIRFVVMNIYGAASDKSMVG | 7.422 ± 0.036
CIRMLSVIYHCPL | 4.85 ± 0.07
CIRMNRISLGNSICWCAPNM | 7.922 ± 0.047
CIRVGSQNVMFPIDSEPSDL | 0.482 ± 0.46
CISMDLIVLNSFMGKPLPPP | 5.39 ± 0.057
CITFS | -0.817 ± 0.46

Substance | amyloid nucleation score
CKLWECTLLVGWGNLLRVRG | -0.276 ± 0.76
CKMYVET | 0.23 ± 0.38
CKPAVPMLN | 2.49 ± 0.076
CKWEFKWPYWGDYLVFMCK | -0.679 ± 1.1
CKYVYFRPTRASSSWHVIFL | 2.93 ± 0.076
CLAASSGVLYNEVQSYNTLV | inactive
CLCGTFVSVSPIGYRGQWGG | -0.467 ± 0.76
CLFVQSRIDYALNNLTVC | -0.755 ± 0.48
CLFWG | 2.85 ± 0.11
CLKSISTRNR | -0.932 ± 0.76
CLLGMYIVTDTARMTVCVGL | 0.444 ± 0.49
CLNWRSLSS | 3.34 ± 0.067
CLRVVCLRGLFYYANSACQV | -0.199 ± 0.54
CLRYGISRWLRLFRINNVVE | 0.046 ± 0.34
CLTSFEES | -0.155 ± 0.65
CLTTGNLWEVTAGIESVRWI | 0.202 ± 0.5
CLYARHFVNCNGYATGTLMD | -0.163 ± 0.61
CLYYEPVSL | -0.263 ± 1.1
CMEKFTLELTVIIRHSNQLG | 0.225 ± 0.31
CMFVILMYLHQGRKLNAVPS | -1.02 ± 1.1
